{"source": "paper PMC7327521", "about": "(Journal of Molecular Biology, 2020)", "experiment_in_all_cases": "fluorescence polarisation", "key": {"[1]": {"target": "T1, tandem SH2 domain of C. glabrata Spt6 (Spt6-tSH2) (C. glabrata, UniProt Q6FLB1 1250-1444)", "T1 sequence (looked up)": "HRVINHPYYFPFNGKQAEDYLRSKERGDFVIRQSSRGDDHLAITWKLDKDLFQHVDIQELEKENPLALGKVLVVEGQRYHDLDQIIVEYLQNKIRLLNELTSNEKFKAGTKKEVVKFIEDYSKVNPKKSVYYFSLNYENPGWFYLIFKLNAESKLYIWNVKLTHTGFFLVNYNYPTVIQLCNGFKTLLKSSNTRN"}, "Spt6-tSH2 K1354E": {"target": "T2, Spt6-tSH2 K1354E (C. glabrata, UniProt Q6FLB1 1250-1444, K1354E)", "T2 sequence (looked up)": "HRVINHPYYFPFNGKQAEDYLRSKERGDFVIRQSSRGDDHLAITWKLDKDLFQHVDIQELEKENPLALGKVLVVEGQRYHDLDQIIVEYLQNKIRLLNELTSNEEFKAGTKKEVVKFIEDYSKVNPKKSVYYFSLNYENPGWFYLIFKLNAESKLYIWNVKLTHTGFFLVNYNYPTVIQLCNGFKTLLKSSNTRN"}, "Spt6-tSH2 R1281A/S1284A": {"target": "T3, Spt6-tSH2 R1281A/S1284A (C. glabrata, UniProt Q6FLB1 1250-1444, R1281A | S1284A)", "T3 sequence (looked up)": "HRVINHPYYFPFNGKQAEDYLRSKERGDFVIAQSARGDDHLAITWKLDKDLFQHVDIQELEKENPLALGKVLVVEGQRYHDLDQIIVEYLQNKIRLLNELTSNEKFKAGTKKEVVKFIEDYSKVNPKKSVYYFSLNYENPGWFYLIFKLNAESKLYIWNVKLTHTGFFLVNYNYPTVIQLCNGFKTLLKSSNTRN"}, "[2]": {"target": "T4, Spt6-tSH2 R1281A/S1283A/R1285A (C. glabrata, UniProt Q6FLB1 1250-1444, R1281A | S1283A | R1285A)", "T4 sequence (looked up)": "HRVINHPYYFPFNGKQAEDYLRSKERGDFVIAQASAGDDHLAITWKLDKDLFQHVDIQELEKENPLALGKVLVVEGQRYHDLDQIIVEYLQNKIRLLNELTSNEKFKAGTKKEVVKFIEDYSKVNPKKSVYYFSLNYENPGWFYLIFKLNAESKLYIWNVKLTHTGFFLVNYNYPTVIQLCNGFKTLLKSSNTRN"}, "[3]": {"target": "T5, N-terminal SH2 domain of C. glabrata Spt6 (Spt6-N-SH2) (C. glabrata, UniProt Q6FLB1 1250-1354)", "T5 sequence (looked up)": "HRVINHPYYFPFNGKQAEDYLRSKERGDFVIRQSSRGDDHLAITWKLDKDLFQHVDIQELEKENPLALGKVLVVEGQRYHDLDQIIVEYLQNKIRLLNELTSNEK"}, "Spt6-tSH2 R1281A": {"target": "T6, Spt6-tSH2 R1281A (C. glabrata, UniProt Q6FLB1 1250-1444, R1281A)", "T6 sequence (looked up)": "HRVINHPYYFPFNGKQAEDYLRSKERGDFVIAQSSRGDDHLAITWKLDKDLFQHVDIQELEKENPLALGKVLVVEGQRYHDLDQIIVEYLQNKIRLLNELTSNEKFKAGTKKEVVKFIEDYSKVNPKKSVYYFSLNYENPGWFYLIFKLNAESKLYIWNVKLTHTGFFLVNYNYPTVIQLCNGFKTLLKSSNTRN"}, "Spt6-tSH2 S1283A": {"target": "T7, Spt6-tSH2 S1283A (C. glabrata, UniProt Q6FLB1 1250-1444, S1283A)", "T7 sequence (looked up)": "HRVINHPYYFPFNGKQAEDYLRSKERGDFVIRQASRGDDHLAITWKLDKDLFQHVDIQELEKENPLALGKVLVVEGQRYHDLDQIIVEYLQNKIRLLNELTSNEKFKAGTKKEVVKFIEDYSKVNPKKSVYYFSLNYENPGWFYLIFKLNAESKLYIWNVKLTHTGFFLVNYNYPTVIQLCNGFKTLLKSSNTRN"}, "Spt6-tSH2 S1284A": {"target": "T8, Spt6-tSH2 S1284A (C. glabrata, UniProt Q6FLB1 1250-1444, S1284A)", "T8 sequence (looked up)": "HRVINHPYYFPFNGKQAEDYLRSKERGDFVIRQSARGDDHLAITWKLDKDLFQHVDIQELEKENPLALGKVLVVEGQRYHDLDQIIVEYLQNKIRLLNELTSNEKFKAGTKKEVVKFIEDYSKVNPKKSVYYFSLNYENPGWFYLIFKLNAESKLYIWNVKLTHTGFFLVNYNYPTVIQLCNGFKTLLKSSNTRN"}, "Spt6-tSH2 E1324A": {"target": "T9, Spt6-tSH2 E1324A (C. glabrata, UniProt Q6FLB1 1250-1444, E1324A)", "T9 sequence (looked up)": "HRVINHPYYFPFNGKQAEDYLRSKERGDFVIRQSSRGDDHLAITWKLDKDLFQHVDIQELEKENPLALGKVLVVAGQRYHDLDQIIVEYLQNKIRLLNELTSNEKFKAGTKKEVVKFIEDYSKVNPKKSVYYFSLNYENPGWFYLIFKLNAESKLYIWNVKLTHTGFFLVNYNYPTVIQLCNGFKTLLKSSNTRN"}}, "note": "Square brackets hold non-standard residues; d marks the D form. Ends that are not written are not given here. pY = N[C@@H](Cc1ccc(OP(=O)(O)O)cc1)C(=O)O", "data": [{"binder": "{5,6‑FAM}-PS[pY]SPTSPS[pY]SPTSPS", "note": "[(pY1-CTD)2, FAM-labelled tyrosine-phosphorylated CTD diheptad]", "values": [{"measurement": "Kd", "setting": "[1]", "value": 5.1, "unit": "µM"}, {"measurement": "Kd", "setting": "Spt6-tSH2 K1354E", "value": 16.3, "unit": "µM"}, {"measurement": "Kd", "setting": "Spt6-tSH2 R1281A/S1284A", "value": 11.4, "unit": "µM"}, {"measurement": "Kd", "setting": "[2]", "value": 16.5, "unit": "µM"}, {"measurement": "Kd", "setting": "[3]", "value": 313, "unit": "µM"}, {"measurement": "Kd", "setting": "Spt6-tSH2 R1281A", "value": 17.6, "unit": "µM"}, {"measurement": "Kd", "setting": "Spt6-tSH2 S1283A", "value": 5.4, "unit": "µM"}, {"measurement": "Kd", "setting": "Spt6-tSH2 S1284A", "value": 8.2, "unit": "µM"}, {"measurement": "Kd", "setting": "Spt6-tSH2 E1324A", "value": 1.4, "unit": "µM"}]}]}
